Series [1] concerns the target T1, rh wt Bri2 BRICHOS-mCherry oligomers (human, UniProt A5A6H8 113-231 (Pan troglodytes entry)).
T1 sequence: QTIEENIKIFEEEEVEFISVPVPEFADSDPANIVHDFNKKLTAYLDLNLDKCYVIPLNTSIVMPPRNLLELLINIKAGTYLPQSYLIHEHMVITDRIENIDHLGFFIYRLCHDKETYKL
Kind of series: cell-based or functional assay.

Series [2] concerns the molecule itself. Nature of the series: size exclusion chromatography, self-association.

B1: rh Bri2 BRICHOS R221E monomer (other)
chain: QTIEENIKIFEEEEVEFISVPVPEFADSDPANIVHDFNKKLTAYLDLNLDKCYVIPLNTSIVMPPRNLLELLINIKAGTYLPQSYLIHEHMVITDRIENIDHLGFFIYELCHDKETYKL
Take B1: the “release of wt monomers from oligomers after co-incubation” value in series [1] was ~2 molar ratio mutant:wt.

B2: rh wt Bri2 BRICHOS (other)
chain: QTIEENIKIFEEEEVEFISVPVPEFADSDPANIVHDFNKKLTAYLDLNLDKCYVIPLNTSIVMPPRNLLELLINIKAGTYLPQSYLIHEHMVITDRIENIDHLGFFIYRLCHDKETYKL
notes: also called Bri2 BRICHOS [Bri2(113-231)]; wt protein
As for B2, the binding result in series [2] is given as “binds”.

The values are drawn from patent publication US20230002458A1 (ALPHABETA, published 2023).
